Assay in all cases: SEC-MALS; Superdex 200 Increase 5/150 GL; proteins at 3 mg/ml; 20 mM Tris-HCl pH 8.0, 300 mM NaCl, 5% glycerol, 2 mM 2-mercaptoethanol
A general note: SEC sorts molecules by how far they enter the pores of the column.

Data set [1] deals with VvRraA1 (RraA ortholog 1 of Vibrio vulnificus), hexahistidine-tagged (Vibrio vulnificus MO6-24/O).
Data set [2] concerns the target VvRraA2 (RraA ortholog 2 of Vibrio vulnificus), hexahistidine-tagged (Vibrio vulnificus MO6-24/O).
Data set [3] deals with the molecule itself.

As usually defined, the stoichiometry N is the number of molecules, sites or subunits per partner or assembly. Regarding “VvRraA1 (RraA ortholog 1 of Vibrio vulnificus), hexahistidine-tagged (natural protein)”, the stoichiometry N in data set [1] is 6. As to “VvRraA2 (RraA ortholog 2 of Vibrio vulnificus), hexahistidine-tagged (natural protein)”, the stoichiometry N in data set [2] amounted to 3.

B1: E. coli RraA (natural protein)
chain: MKYDTSELCDIYQEDVNVVEPLFSNFGGRASFGGQIITVKCFEDNGLLYDLLEQNGRGRVLVVDGGGSVRRALVDAELARLAVQNEWEGLVIYGAVRQVDDLEELDIGIQAMAAIPVGAAGEGIGESDVRVNFGGVTFFSGDHLYADNTGIILSEDPLDIE
notes: RraA, regulator of ribonuclease activity A, Escherichia coli; the construct is not described here; Hexamer by SEC-MALS (87.05 kDa); also called EcRraA
For B1, the “stoichiometry N” value in data set [3] amounted to 6.

The values are drawn from PMC5738090, “Functional implications of hexameric assembly of RraA proteins from Vibrio vulnificus” (PLoS ONE, 2017).
